Test results published in PMC9841435, “Structural basis of DNA polymerase θ mediated DNA end joining” (Nucleic Acids Research, 2022).
Where two headings read alike, the source gives them in different places.

Experiments:
[1] = tested on: T1, LcPol θ-pol; experiment: steady-state primer extension, denaturing PAGE of 6-FAM hairpin DNA; assay type: biochemical, Lates calcarifer; details: 1 μM hairpin DNA HP [3,9], 1 nM enzyme, 5 mM MgCl2, 100 mM KCl, pH 7.6, 37 °C; read-out: KM, dATP
T1 construct: gene polq; C-terminal polymerase domain (pseudo-exonuclease, thumb, finger, palm), residues 1950-2714 of 2714; synthetic gene in pETsumo2; His6-SUMO tag removed by SENP2; E. coli Rosetta2 (DE3); mainly monomeric

[2] = tested on: T1, LcPol θ-pol; experiment: as above; assay type: biochemical, Lates calcarifer; details: Δloop2_b (ΔV2405–R2448); 1 μM hairpin DNA HP [3,9], 200 nM enzyme, 5 mM MgCl2, 100 mM KCl, pH 7.6, 37 °C; read-out: KM, dATP
[3] = biological target: LcPol theta-pol Δloop2_b (Lates calcarifer, UniProt PDB:8EFK_1 1-864, del555-598); experiment: EMSA; 2.5 mM EDTA; Kd comparable to WT; EMSA: 10 nM HP [3,9], 25 mM HEPES pH 8.0, 100 mM KCl, 3 mM DTT, 100 ug/ml BSA, 10% glycerol, 2.5 mM EDTA, 0.01% NP40, on ice 20 min; 6% native PAGE, Tris-glycine; Hill fit; details: protein: recombinant; tags: His6-SUMO, removed by SENP2; label: 5' 6-FAM; hairpin, 3-bp stem, 9-nt dT loop, 5' overhang 8 nt
[4] = biological target: LcPol theta-pol Δloop2_a (Lates calcarifer, UniProt PDB:8EFK_1 1-864, del552-591); experiment: as above; details: protein: recombinant; tags: His6-SUMO, removed by SENP2; label: 5' 6-FAM; hairpin, 3-bp stem, 9-nt dT loop, 5' overhang 8 nt
[5] = biological target: LcPol theta-pol R2448A (Lates calcarifer, UniProt PDB:8EFK_1 1-864, R598A); experiment: as above; details: protein: recombinant; tags: His6-SUMO, removed by SENP2; label: 5' 6-FAM; hairpin, 3-bp stem, 9-nt dT loop, 5' overhang 8 nt
[6] = biological target: LcPol theta-pol R2306A/R2307A (Lates calcarifer, UniProt PDB:8EFK_1 1-864, R456A;R457A); experiment: EMSA; 2.5 mM EDTA; affinity similar to WT; EMSA: 10 nM HP [3,9], 25 mM HEPES pH 8.0, 100 mM KCl, 3 mM DTT, 100 ug/ml BSA, 10% glycerol, 2.5 mM EDTA, 0.01% NP40, on ice 20 min; 6% native PAGE, Tris-glycine; Hill fit; details: protein: recombinant; tags: His6-SUMO, removed by SENP2; label: 5' 6-FAM; hairpin, 3-bp stem, 9-nt dT loop, 5' overhang 8 nt
[7] = biological target: LcPol theta-pol K2299A/K2300A (Lates calcarifer, UniProt PDB:8EFK_1 1-864, K449A;K450A); experiment: as above; details: protein: recombinant; tags: His6-SUMO, removed by SENP2; label: 5' 6-FAM; hairpin, 3-bp stem, 9-nt dT loop, 5' overhang 8 nt
[8] = biological target: LcPol theta-pol Δloop1 (Lates calcarifer, UniProt PDB:8EFK_1 1-864, del443-461); experiment: EMSA; 2.5 mM EDTA, no dNTP; EMSA: 10 nM HP [3,9], 25 mM HEPES pH 8.0, 100 mM KCl, 3 mM DTT, 100 ug/ml BSA, 10% glycerol, 2.5 mM EDTA, 0.01% NP40, on ice 20 min; 6% native PAGE, Tris-glycine; Hill fit; details: protein: recombinant; tags: His6-SUMO, removed by SENP2; label: 5' 6-FAM; hairpin, 3-bp stem, 9-nt dT loop, 5' overhang 8 nt
[9] = biological target: LcPol theta-pol K2299A/K2300A/R2306A/R2307A (Lates calcarifer, UniProt PDB:8EFK_1 1-864, K449A;K450A;R456A;R457A); experiment: as above; details: protein: recombinant; tags: His6-SUMO, removed by SENP2; label: 5' 6-FAM; hairpin, 3-bp stem, 9-nt dT loop, 5' overhang 8 nt
[10] = biological target: T2, LcPol theta-pol WT (Lates calcarifer, UniProt PDB:8EFK_1 1-864); experiment: as above; details: protein: recombinant; tags: His6-SUMO, removed by SENP2; label: 5' 6-FAM; hairpin, 3-bp stem, 9-nt dT loop, 5' overhang 8 nt
[11] = biological target: T2, LcPol theta-pol WT; experiment: cryo-EM; dGTP, Mg2+; complex Ia, 2.4 A, 11 bp visible; EMSA: 10 nM HP [3,9], 25 mM HEPES pH 8.0, 100 mM KCl, 3 mM DTT, 100 ug/ml BSA, 10% glycerol, 2.5 mM EDTA, 0.01% NP40, on ice 20 min; 6% native PAGE, Tris-glycine; Hill fit; details: protein: recombinant; tags: His6-SUMO, removed by SENP2; primer/template, 20 bp, template 5' overhang 9 nt

T2 sequence (chain, as listed by the source): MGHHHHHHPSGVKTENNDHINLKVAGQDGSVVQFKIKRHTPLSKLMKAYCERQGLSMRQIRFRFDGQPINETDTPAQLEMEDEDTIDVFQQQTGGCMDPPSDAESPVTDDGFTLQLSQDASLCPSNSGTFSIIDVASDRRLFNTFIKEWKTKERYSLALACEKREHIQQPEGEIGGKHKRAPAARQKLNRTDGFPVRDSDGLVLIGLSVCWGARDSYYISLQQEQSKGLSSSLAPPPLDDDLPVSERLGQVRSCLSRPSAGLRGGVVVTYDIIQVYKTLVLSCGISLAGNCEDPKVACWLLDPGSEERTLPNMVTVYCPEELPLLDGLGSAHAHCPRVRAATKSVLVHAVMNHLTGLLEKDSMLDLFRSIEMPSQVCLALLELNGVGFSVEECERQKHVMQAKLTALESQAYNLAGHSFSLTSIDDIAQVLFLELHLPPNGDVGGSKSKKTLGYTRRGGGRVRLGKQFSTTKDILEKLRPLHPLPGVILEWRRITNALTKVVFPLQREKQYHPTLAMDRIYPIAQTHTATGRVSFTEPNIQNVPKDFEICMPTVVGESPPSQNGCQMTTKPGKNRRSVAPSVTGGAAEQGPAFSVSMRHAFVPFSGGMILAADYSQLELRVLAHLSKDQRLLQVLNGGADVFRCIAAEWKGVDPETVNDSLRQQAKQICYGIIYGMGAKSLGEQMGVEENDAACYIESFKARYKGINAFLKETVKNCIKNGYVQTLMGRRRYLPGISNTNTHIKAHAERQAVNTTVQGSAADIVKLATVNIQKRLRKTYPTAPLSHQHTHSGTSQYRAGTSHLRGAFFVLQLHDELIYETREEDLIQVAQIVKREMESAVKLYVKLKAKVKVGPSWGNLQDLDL
LcPol theta-pol Δloop2_a, sequence (chain, as listed by the source del552-591 | mutant): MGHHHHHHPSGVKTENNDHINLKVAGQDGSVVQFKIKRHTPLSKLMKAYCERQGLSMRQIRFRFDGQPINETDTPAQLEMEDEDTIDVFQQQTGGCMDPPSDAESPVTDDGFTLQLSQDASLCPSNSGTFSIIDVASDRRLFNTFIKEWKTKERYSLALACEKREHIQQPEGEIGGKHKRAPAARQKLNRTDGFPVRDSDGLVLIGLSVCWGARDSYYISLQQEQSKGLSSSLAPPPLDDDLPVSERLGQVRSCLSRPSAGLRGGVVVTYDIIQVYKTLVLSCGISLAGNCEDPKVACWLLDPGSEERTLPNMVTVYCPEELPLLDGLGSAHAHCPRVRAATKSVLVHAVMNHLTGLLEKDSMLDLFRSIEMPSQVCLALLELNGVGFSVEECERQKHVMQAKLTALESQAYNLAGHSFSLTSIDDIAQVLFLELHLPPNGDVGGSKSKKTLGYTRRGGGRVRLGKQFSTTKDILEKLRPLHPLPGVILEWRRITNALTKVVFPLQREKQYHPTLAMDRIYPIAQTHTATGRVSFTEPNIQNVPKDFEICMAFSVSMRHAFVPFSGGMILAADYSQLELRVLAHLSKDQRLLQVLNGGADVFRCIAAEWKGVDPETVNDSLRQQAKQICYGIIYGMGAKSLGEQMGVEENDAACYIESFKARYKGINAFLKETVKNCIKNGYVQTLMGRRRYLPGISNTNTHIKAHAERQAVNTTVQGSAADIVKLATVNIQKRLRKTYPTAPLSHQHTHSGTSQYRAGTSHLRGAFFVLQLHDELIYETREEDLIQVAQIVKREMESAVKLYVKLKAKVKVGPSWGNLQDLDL
LcPol theta-pol Δloop1, sequence (chain, as listed by the source del443-461 | mutant): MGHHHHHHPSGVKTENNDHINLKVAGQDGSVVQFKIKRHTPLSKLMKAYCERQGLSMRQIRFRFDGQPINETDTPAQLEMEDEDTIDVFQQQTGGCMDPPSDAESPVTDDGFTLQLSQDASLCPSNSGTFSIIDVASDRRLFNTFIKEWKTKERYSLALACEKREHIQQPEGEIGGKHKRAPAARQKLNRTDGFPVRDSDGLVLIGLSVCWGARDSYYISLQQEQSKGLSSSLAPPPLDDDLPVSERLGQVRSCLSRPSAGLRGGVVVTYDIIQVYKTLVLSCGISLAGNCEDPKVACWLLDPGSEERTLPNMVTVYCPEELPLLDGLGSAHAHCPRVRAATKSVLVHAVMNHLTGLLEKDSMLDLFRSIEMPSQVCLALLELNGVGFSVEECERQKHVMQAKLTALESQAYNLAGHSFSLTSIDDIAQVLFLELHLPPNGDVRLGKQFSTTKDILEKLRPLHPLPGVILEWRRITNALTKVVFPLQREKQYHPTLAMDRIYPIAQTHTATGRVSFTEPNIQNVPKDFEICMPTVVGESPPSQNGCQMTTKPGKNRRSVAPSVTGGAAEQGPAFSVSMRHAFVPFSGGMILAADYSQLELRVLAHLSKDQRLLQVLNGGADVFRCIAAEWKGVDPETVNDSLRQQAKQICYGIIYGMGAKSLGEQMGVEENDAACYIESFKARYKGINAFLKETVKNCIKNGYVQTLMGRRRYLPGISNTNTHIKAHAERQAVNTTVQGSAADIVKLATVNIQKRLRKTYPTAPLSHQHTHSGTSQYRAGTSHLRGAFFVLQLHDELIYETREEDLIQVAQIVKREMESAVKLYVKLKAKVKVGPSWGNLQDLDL
LcPol theta-pol R2306A/R2307A, sequence (chain, as listed by the source R456A;R457A | R2306A R2307A R2306A R2307A): as the sequence (chain, as listed by the source) above, with R456A, R457A counted along it
LcPol theta-pol K2299A/K2300A, sequence (chain, as listed by the source K449A;K450A | K2299A K2300A K2299A K2300A): as the sequence (chain, as listed by the source) above, with K449A, K450A counted along it
LcPol theta-pol K2299A/K2300A/R2306A/R2307A, sequence (chain, as listed by the source with the stated changes): as the sequence (chain, as listed by the source) above, with K449A, K450A, R456A, R457A counted along it
LcPol theta-pol R2448A, sequence (chain, as listed by the source R598A | R2448A R2448A): as the sequence (chain, as listed by the source) above, with R598A counted along it
LcPol theta-pol Δloop2_b, sequence (chain, as listed by the source del555-598 | mutant): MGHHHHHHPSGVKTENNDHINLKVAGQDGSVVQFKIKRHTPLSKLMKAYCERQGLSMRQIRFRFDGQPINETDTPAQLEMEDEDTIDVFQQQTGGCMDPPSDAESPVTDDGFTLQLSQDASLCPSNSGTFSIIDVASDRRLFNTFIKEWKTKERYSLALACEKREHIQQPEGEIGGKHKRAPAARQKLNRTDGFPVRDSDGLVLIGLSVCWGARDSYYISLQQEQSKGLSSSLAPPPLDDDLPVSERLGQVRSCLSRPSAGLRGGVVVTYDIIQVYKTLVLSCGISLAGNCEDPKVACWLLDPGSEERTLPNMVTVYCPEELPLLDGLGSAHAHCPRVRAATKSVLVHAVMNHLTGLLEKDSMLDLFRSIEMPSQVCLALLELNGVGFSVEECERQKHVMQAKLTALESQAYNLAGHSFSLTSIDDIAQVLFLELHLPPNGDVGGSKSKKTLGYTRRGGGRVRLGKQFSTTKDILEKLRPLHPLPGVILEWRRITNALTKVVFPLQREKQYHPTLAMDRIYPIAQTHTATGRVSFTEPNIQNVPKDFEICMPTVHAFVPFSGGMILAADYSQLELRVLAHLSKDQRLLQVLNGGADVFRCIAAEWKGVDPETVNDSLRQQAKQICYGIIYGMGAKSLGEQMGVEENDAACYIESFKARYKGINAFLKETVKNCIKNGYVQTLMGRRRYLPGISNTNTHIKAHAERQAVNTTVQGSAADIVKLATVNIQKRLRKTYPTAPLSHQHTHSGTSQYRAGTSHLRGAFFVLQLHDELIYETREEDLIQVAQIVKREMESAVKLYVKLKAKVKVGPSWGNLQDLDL

Which results are given for `Nc1ncnc2c1ncn2[C@H]1C[C@H](O)[C@@H](COP(=O)(O)OP(=O)(O)OP(=O)(O)O)O1` [dATP]?
Km [1]: 12 µM; Km [2]: 157 µM

Does TTTTTTTTGGCTTTTTTTTTGCC (structured_DNA) [HP [3,9]] bind [3]?
Result: binds

Does TTTTTTTTGGCTTTTTTTTTGCC (structured_DNA) [HP [3,9]] bind [4]?
Result: binds

Does TTTTTTTTGGCTTTTTTTTTGCC (structured_DNA) [HP [3,9]] bind [5]?
Result: binds

Does TTTTTTTTGGCTTTTTTTTTGCC (structured_DNA) [HP [3,9]] bind [6]?
Result: binds

Does TTTTTTTTGGCTTTTTTTTTGCC (structured_DNA) [HP [3,9]] bind [7]?
Result: binds

What about the Kd [8] of the same molecule?
The Kd was 138 nM.

And the Kd [9]?
The Kd was 50 nM.

And the Kd [10]?
Its Kd is 29 nM.

B1: 20/29 mer dsDNA, ddA-terminated primer (dsDNA)
DNA 1: TGCTGTGAGGCATCCGTAGA
DNA 2: GCAGTCAGCTCTACGGATGCCTCACAGCA
modifications: 3'-terminal dideoxy-A on primer
Does B1 bind [11]?
Result: binds
